Source: IntAct's records for PubMed 12692135

B1: Tumor protein 63 (Homo sapiens), Q9H3D4 (parent)
chain: MNFETSRCATLQYCPDPYIQRFVETPAHFSWKESYYRSTMSQSTQTNEFLSPEVFQHIWDFLEQPICSVQPIDLNFVDEPSEDGATNKIEISMDCIRMQDSDLSDPMWPQYTNLGLLNSMDQQIQNGSSSTSPYNTDHAQNSVTAPSPYAQPSSTFDALSPSPAIPSNTDYPGPHSFDVSFQQSSTAKSATWTYSTELKKLYCQIAKTCPIQIKVMTPPPQGAVIRAMPVYKKAEHVTEVVKRCPNHELSREFNEGQIAPPSHLIRVEGNSHAQYVEDPITGRQSVLVPYEPPQVGTEFTTVLYNFMCNSSCVGGMNRRPILIIVTLETRDGQVLGRRCFEARICACPGRDRKADEDSIRKQQVSDSTKNGDGTKRPFRQNTHGIQMTSIKKRRSPDDELLYLPVRGRETYEMLLKIKESLELMQYLPQHTIETYRQQQQQQHQHLLQKQTSIQSPSSYGNSSPPLNKMNSMNKLPSVSQLINPQQRNALTPTTIPDGMGANIPMMGTHMPMAGDMNGLSPTQALPPPLSMPSTSHCTPPPPYPTDCSIVSFLARLGCSSCLDYFTTQGLTTIYQIEHYSMDDLASLKIPEQFRHAIWKGILDHRQLHEFSSPSHLLRTPSSASTVSVGSSETRGERVIDAVRFTLRQTISFPPRDEWNDFNFDMDARRNKQQRIKEEGE
partner: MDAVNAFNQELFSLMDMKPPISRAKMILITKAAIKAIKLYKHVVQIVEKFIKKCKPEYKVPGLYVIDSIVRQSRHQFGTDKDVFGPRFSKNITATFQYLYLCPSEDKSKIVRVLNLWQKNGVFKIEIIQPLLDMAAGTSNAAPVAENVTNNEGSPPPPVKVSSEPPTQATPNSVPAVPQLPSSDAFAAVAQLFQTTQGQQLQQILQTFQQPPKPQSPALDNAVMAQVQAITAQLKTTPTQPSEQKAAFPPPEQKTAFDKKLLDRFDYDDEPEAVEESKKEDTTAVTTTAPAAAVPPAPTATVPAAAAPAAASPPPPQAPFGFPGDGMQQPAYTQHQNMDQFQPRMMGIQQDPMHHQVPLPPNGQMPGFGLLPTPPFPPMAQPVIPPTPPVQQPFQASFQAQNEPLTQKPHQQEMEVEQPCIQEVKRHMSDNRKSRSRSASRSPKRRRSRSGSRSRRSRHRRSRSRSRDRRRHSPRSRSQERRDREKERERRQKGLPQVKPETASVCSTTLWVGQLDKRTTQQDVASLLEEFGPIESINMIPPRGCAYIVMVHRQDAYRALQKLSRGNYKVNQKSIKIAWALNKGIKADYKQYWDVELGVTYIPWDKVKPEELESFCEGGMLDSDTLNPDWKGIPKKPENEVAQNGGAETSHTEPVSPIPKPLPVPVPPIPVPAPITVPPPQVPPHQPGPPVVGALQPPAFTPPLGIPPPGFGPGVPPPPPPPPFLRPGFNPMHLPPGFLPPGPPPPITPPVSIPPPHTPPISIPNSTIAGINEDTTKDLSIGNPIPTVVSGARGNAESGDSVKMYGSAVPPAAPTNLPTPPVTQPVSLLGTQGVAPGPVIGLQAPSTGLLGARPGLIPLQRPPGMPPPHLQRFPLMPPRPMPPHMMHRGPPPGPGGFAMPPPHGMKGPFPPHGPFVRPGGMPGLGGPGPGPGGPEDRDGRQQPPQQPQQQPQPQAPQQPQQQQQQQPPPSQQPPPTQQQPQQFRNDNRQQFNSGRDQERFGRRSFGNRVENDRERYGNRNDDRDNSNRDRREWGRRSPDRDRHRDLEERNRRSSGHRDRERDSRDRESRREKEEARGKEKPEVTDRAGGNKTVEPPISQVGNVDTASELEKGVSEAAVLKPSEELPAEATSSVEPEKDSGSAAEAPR
B2: Tumor protein 63 (Homo sapiens), Q9H3D4-2 (parent)
chain: MLYLENNAQTQFSEPQYTNLGLLNSMDQQIQNGSSSTSPYNTDHAQNSVTAPSPYAQPSSTFDALSPSPAIPSNTDYPGPHSFDVSFQQSSTAKSATWTYSTELKKLYCQIAKTCPIQIKVMTPPPQGAVIRAMPVYKKAEHVTEVVKRCPNHELSREFNEGQIAPPSHLIRVEGNSHAQYVEDPITGRQSVLVPYEPPQVGTEFTTVLYNFMCNSSCVGGMNRRPILIIVTLETRDGQVLGRRCFEARICACPGRDRKADEDSIRKQQVSDSTKNGDGTKRPFRQNTHGIQMTSIKKRRSPDDELLYLPVRGRETYEMLLKIKESLELMQYLPQHTIETYRQQQQQQHQHLLQKQTSIQSPSSYGNSSPPLNKMNSMNKLPSVSQLINPQQRNALTPTTIPDGMGANIPMMGTHMPMAGDMNGLSPTQALPPPLSMPSTSHCTPPPPYPTDCSIVSFLARLGCSSCLDYFTTQGLTTIYQIEHYSMDDLASLKIPEQFRHAIWKGILDHRQLHEFSSPSHLLRTPSSASTVSVGSSETRGERVIDAVRFTLRQTISFPPRDEWNDFNFDMDARRNKQQRIKEEGE
B3: Tumor protein 63 (Homo sapiens), Q9H3D4-1 (parent)
chain: B1 chain

Variants of: B1
Conditions: with scaf4_human SCAF4, O95104

Variant | effect of a mutation on the interaction
L553F | disrupting interaction strength

Variants of: B2
Conditions: with roaa_human HNRNPAB
Target sequence in this assay (Q99729 whole entry): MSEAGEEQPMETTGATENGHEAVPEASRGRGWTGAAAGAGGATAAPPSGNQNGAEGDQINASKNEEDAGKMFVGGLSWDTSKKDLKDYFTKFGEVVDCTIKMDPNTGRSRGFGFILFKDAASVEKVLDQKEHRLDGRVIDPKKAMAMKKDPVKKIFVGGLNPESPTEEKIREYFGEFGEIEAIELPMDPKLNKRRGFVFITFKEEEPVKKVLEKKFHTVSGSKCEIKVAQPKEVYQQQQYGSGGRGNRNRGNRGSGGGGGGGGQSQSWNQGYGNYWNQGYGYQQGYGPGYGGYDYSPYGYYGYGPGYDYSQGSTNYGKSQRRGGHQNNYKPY

Variant | effect of a mutation on the interaction
C467V | disrupting interaction strength
Q481L | disrupting interaction strength
I482T | disrupting interaction strength
G475V | disrupting interaction strength

Variants of: B2
Conditions: with roaa_human HNRNPAB
Remark: another data set of the same source
Target sequence in this assay (Q99729 whole entry): as above

Variant | effect of a mutation on the interaction
L459F | disrupting interaction strength

Variants of: B3
Conditions: with roaa_human HNRNPAB
Target sequence in this assay (Q99729 whole entry): as above

Variant | effect of a mutation on the interaction
Q575L | disrupting interaction strength
C561V | disrupting interaction strength
I576T | disrupting interaction strength
L553F | disrupting interaction strength
G569V | disrupting interaction strength

Variants of: B3
Conditions: with rack1_human RACK1, P63244

Variant | effect of a mutation on the interaction
L553F | with no effect

Variants of: B3
Conditions: with roaa_human HNRNPAB
Remark: another data set of the same source
Target sequence in this assay (Q99729 whole entry): as above

Variant | effect of a mutation on the interaction
L553F | disrupting interaction strength
